The record followed here is US20250270306A1 (OSPEDALE SAN RAFFAELE S R L, published 2025).

The target in experiment [1] is T1, Recombinant human IGFBP3 (human, UniProt P17936 28-291). Kind of experiment: cell-based or functional assay.
Experiment [2] deals with T1, Recombinant human IGFBP3. Kind of experiment: BLI (Octet/BLItz), antibody captured via Fc on AHC biosensor, antigen in solution. The procedure: (§1) To assess the binding affinity in more detail, affinity measurements were performed using Biomolecular Interaction Analysis performed by an Octet instrument (BLItz System), which is a Biolayer Interferometry (BLI) platform. To establish the assay, the target monoclonal antibody (30 μg/ml in 1% BSA-PBST) was immobilized via Fc on the via AHC biosensor and the interaction with the antigen human IGFBP3 (R&D, cat n° 675 B3) and mouse IGFBP3 (Creative Biomart, cat n° igfbp3 829M) at different concentration was measured.
For orientation: Biolayer interferometry detects binding as a change in optical thickness at a sensor tip.

The target of experiment [3] is T1, Recombinant human IGFBP3. Kind of experiment: competitive ELISA: plate coated with rhIGFBP3 4 µg/ml; ecto-TMEM219 10 µg/ml added with the antibody (10 µg/ml per paragraph 174); detection anti-HisTag HRP; blocked ligand: ecto-TMEM219. On the procedure: FIG. 5. IGFBP3-Ecto-TMEM219 binding in the presence of newly generated anti-IGFBP3 mAbs (n=11, YU139 antibodies) or Ecto-TMEM219 alone or monoclonal anti-IGFBP3 commercially available (LSBIO LS-C45037/clone 83.8F9, mAnti-IGFBP3) tested by using a competitive ELISA screening assay. In this assay, the microtiter plate was coated with rhlGFBP3, and labeled ecto-TMEM219 added. Each candidate monoclonal antibody was added and its ability to displace ecto-TMEM219 was assessed by measuring Absorbance after the plate was washed. Boxed are anti-IGFBP3 antibodies able to achieve the highest reduction in Ecto-TMEM219 signal (1-way ANOVA, p<0.00001).
Microplate was coated with 50 μl/well of 4 μg/ml rhlGFBP3 dissolved in PBS or PBS alone (no coating). Plate was incubated 90 minutes at 37° C. and washed with PBS (300 μl/well) and incubated with the blocking reagent (200 μl/well) 2 hours at room temperature. Samples were then diluted in the diluent solution (50 μl/well) and added to the plate as follows: diluent solution (none), ecto-TMEM 10 μg/ml, ecto-TMEM 10 μg/ml+anti-IGFBP3 mAbs 10 μg/ml, anti-IGFBP3 mAbs 10 μg/ml alone. After washing steps, plate was then incubated at room temperature for 1 hour with anti 6×His tag HRP diluted 1:2000 in Diluent solution (50 μl/well). ELISA plate was then read after adding visualization solution at ELISAreader and adsorbance was measured.
(In an ELISA, binding on a coated surface is turned into a signal by an enzyme label.)

The target of experiment [4] is T1, Recombinant human IGFBP3. The experiment can be described thus: BLI (Octet/BLItz).
The target in experiment [5] is T2, mouse IGFBP3 (mouse, UniProt P47878 28-292, limits assumed).
T2 construct: Bought protein; also called mIGFBP-3; murine IGFBP3
T2 sequence (P47878 28-292 limits assumed): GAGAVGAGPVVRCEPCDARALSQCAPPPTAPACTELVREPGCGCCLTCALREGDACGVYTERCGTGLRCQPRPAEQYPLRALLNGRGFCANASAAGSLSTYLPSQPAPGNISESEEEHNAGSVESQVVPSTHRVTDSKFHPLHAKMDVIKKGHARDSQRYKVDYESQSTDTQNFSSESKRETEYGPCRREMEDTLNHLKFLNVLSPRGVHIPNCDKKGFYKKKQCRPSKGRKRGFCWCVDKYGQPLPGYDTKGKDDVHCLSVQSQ
Kind of experiment: BLI (Octet/BLItz).

Experiment [6] has as its target T1, Recombinant human IGFBP3. Kind of experiment: ELISA: rhIGFBP3 2 µg/ml coated directly; scFv-Fc titrated 0.01-10 µg/ml; detection goat anti-human Fc-HRP, Abs 450 nm. The procedure:
CVC microplates were coated with: i) 100 μl/well of 2 μg/ml rhIGFBP3 dissolved in PBS or PBS alone (no coating) and incubated 60 minutes at RT; ii) 100 μl/well of 2 μg/ml anti-IGFBP3 (LS-C45037 LSBio) and incubated o.n at 4° C. Plates were washed with H₂O-Tween20 (0.05%) and incubated with the blocking reagent (2% BSA-PBS-T (0.05%)). For condition ii) 100 μl/well of 2 μg/ml rhIGFBP3 was incubated o.n at 4° C. After washing the newly generated antibodies (in 2% BSA-PBS-T (0.05%)) were titrated onto the plate and incubated for 1 hour at RT. After washing steps, detection of bound antibodies was performed using a goat anti-human Fc-HRP antibody (Sigma A0170) in 2% BPS-PBS-T (0.05%) followed by washing and read out with TMB (100 μl/well). ELISA plates were then read measuring the absorbance at 450 nm.

Experiment [7] has as its target T2, mouse IGFBP3. The experiment can be described thus: BLI (Octet/BLItz), antibody captured via Fc on AHC biosensor, antigen in solution. On the procedure: as §1

Changes are numbered by the printed parent chain.

Usually Kd stands for the concentration at which binding is half-saturated.

T1 sequence (P17936 28-291 limits assumed): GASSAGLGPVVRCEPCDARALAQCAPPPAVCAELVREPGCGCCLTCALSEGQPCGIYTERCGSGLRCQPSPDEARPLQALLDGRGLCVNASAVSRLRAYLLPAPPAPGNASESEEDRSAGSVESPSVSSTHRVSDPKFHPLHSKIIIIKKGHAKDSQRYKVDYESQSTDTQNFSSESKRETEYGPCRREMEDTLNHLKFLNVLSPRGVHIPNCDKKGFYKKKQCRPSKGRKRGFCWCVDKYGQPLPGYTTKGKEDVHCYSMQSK

B1: YU139-H03 (Fc fusion)
VH: QVQLVQSGAEVKKPGASVKVSCKASGYTFTSYGISWVRQAPGQGLEWMGWISAYNGNTNYAQKLQGRVTMTTDTSTSTAYMELRSLRSDDTAVYYCARVKWELGWAFDIWGQGTMVTVSS
VL: QAVLTQPPSVSGAPGQRVTISCTGSSSNIGAGYDVHWYQQLPGTAPKLLIYGNSNRPSGVPDRFSGSKSGTSAPLAITGLQAEDEADYYCQSYDSSLSTVFGGGTKLTVL
notes: The format used in the Octet assay is not restated (captured via Fc)
As for B1, the “expression of ISCs markers EphB2 and LGR5 (RT-PCR) in IGFBP3-treated mini-guts” value (from here on “expression”) with Recombinant human IGFBP3 [1] was no less than 50%. Also, in the experiment with Recombinant human IGFBP3 [2], the dissociation constant (Kd) was found to be 4000 nM.

B2: YU139-D03 (Fc fusion)
VH: QVQLVQSGAEVKKPGASVKVSCKASGYTFSDYGISWVRQAPGQGLEWMGWISGDNVKTTYAKKFQGRVTLTTDTSTSTAYMELRSLTSDDTAAYYCARGGIVFDYWGQGTLVTVSS
VL: ETTLTQSPGTLSLSPGERATLSCRASQSVSGNYLAWYQQKPGQPPRLLIFGASSRATGIPDRFSGSGSGTDFTLTISRLEPEDFGVYYCQQYGSSPGTFGQGTKVEIK
For B2, the binding result with Recombinant human IGFBP3 [3] is “binds”.

B3: YU139-G03 (Fc fusion)
VH: QVQLQQSGAEVKKPGSSVKVSCKASGGIFSTYVTSWVRQAPGQGLEWMGGIIPMFDTTEYAQKLEGRVTITVDESTNTAYMELSSLRFEDTAVYYCARAGGLSHFDYWGQGTLVTVSS
VL: EIVLTQSPLSLPVTPGEPASISCRSSQSLLHSNGNNYLNWYLQKPGQSPQLLIYLSSRRASGVPDRFSGSGSGTDFTLKISRVEAEDVGVYYCMQGLQTPWTFGQGTKVETK
With B3, the “expression” value in the experiment with Recombinant human IGFBP3 [1] was no less than 50%.

B4: ecto-TMEM219 (receptor)
chain: THRTGLRSPDIPQDWVSFLRSFGQLTLCPRNGTVTGKWRGSHVVGLLTTLNFGDGPDRNKTRTFQATVLGSQMGLKGSSAGQLVLITARVTTERTAGTCLYFSAVPGILPSSQPPISCSEEGAGNATLSPRMGEECVSVWSHEGLVLTKLLTSEELALCGSR
notes: it is put last here only for want of better knowledge; also called EctoTMEM-His; extracellular domain of TMEM219; not shown: His tag (detected with anti 6xHis tag HRP)
Turning to B4, the results for the Kd in the experiment with Recombinant human IGFBP3 [4] and in the experiment with mouse IGFBP3 [5] were 35 nM and 60 nM, respectively.

B5: YU139-G01 (Fc fusion)
VH: QMQLVQSGAEVKMPGASVKVSCKASGYTFTSYGISWVRQAPGQGLEWMGWISAYNGNTYYAQKLQGRVTMTADTSTSTAYMDLRSLRSDDTAVYYCARLSYYNYAMDVWGQGTTVTVSS
VL: QSALTQPPSASGSPGQSVTISCTGTSSDVGGYNHVSWYQQHPGKAPKLMIYEVSNRPSGVPNRFSGSKSGNTASLTISGLQAEDEADYYCSSYTSSNTWVFGGGTKLTVL
Consider B5, for which the binding result with Recombinant human IGFBP3 [6] was “binds”.

B6: YU139-A03 (Fc fusion)
VH: QVQLVQSGGGVVQPGRSLRLSCAASGFTFSSYGIHWVRQAPGKGLEWVAIVSYDGRHKYYADSVKGRFTISRDDSKNTIYLQMDSLRAEDTAVYYCAKDSGNSGLEGIHDYWGQGTLVTVSS
VL: DVVMTQSPSSVSASVGDRVTITCRASQGISSWLAWYQQKPGKAPKLLIYAASSLQSGVPSRFSGSGSGTDFTLTISSLQPEDFGTYYCQQANSFPLTFGGGTKVEIK
notes: as for B1
As for B6, the “expression” value with Recombinant human IGFBP3 [1] was no less than 50%. Also, the Kd with Recombinant human IGFBP3 [2] was 328 nM; in the experiment with mouse IGFBP3 [7] it was 735 nM.

B7: YU139-C01 (Fc fusion)
VH: QVQLVQSGAEVKKPGASVKVSCKASGYTFTSYGISWVRQAPGQGLEWMGWINTYNGNTNYAQKLQGRVTMTTDTSTTTAYMELRSLRSDDTAVYYCARDIGYSGSYYSPYYYYGMDVWGQGTTVTVSS
VL: SSELTQDPAVSVALGQTVRITCQGDGLRNYFASWYQQKPGQAPVLVIYGKNNRPSGIPDRFSGSSSGNTASLRIAGAQAEDEADYYCNSRDGSGKHLVFGGGTKLTV
notes: The format used in the Octet assay is not restated (captured via Fc); also called Yu139-CO1
With B7, in the experiment with Recombinant human IGFBP3 [1], the “expression” value was no less than 50%. Further, the Kd was 1.69 nM with Recombinant human IGFBP3 [2] and 342 nM in the experiment with mouse IGFBP3 [7].

B8: YU139-B01 (Fc fusion)
VH: QVQLQESGPGLVKPSGTLSLTCAVSGGSISSSNWWSWVRQPPGKGLEWIGEVYHSGSTNYNPSLKSRVTISVDKSKNQFSLKLSSVTAADTAVYYCARNIPLSSSWPNYYYYYGMDVWGQGTTVTVSS
VL: B7 VL with G26S, F31Y, R73T, A75N, G92S, G94A, L97W
For B8, in the experiment with Recombinant human IGFBP3 [3], the binding result was “binds”.

B9: YU139-A02 (Fc fusion)
VH: QVQLVQSGAEVKKPGSSVKVSCKASGGTFSSYAISWVRQAPGQGLEWMGGIIPIFGTANYAQKFQGRVTITADESTSTAYMELSSLRSEDTAVYYCARDYYDSSGYYFDAFDIWGQGTMVTVSS
VL: QAGLTQPPSASGTPGQRVIISCSGSSSNIGTNTVSWYQHLPGTAPKLLIYNNNERPSGVPRRFSGSRSGASASLAISGLQSDDEAHYYCAAWDDNLTGLVFGGGTKLTVL
Regarding B9, the binding result with Recombinant human IGFBP3 [6] was “binds”.

B10: YU139-D02 (Fc fusion)
VH: EVQLVESGGGVVQPGRSLRLSCAASGFTFSSYGMHWVRQAPGKGLEWVAVISYDGSNKYYADSVKGRFTISRDNSKNTLYLQMNSLRAEDTAVYYCAKDNGDYGYYYYYYMDVWGKGTTVTVSS
VL: DIQMTQSPSTLSASVGDRVTITCRASQSISRWLAWYQQKPGKAPKLLIYDASSLESGVPSRFSGSGSGTEFTLTISSLQPDDFATYYCQQSYSTPLTFGPGTKVDIK
With B10, the binding result with Recombinant human IGFBP3 [3] is listed as “binds”.
